This series can be described thus: soluble on expression in E. coli; label from the status in PepcDB or PDB records.
Turning to “MWKISKENCEDLGFAIVCMFYDAINLSEFKLWLDIVVRDIPIDTIPLYIFDLIDFDKSIGEIYDVIGVVNYGYISNDQKNALTGIAFLRGIDVYDPPISKEKALKALEKYPEIYQRFQHFFPFVELPLF”, the “soluble on expression in E. coli” value is given as “not soluble”. As to “MWQNFYLTTLKLSQYTQEEKPILPADNMDPRALASVHAWEHGDFMCKGYIQSRLSDPLYNVYSNVETSNELWDSLDKKYQTKDAGSQKYAAAKFLDYKMVDSRPMMVQVEELTCLFHDI”, the “soluble on expression in E. coli” value is on record as “soluble”. The entry for “MWYQKTLTLSAKSRGFHLVTDEILNQLADMPRVNIGLLHLLLQHTSASLTLNENCDPTVRHDMERFFLRTVPDNGNYEHDYEGADDMPSHIKSSMLGTSLVLPVHKGRIQTGTWQGIWLGEHRIHGGSRRIIATLQGELEHHHHHH” is “soluble”.

As for “MYAFVRFLEDNVCYALPVSCVRDFSPRSRLDFDNQKVYAVYRGPEELGAGPESPPRAPRDWGALLLHKAQILALAEDKSDLENSVMQKKIKIPKLSLNHVEEDGEVKDYGEEDLQLRHIKRPEGRKPSEVAHKSIEAVVARLEKQNGLSLGHSTCPEEVFVEASPGTEDMDSLEDAVVPRALYEELLRNYQQQQEEMRHLQQELERTRRQLVQQAKKLKEYGALVSEMKELRDLNRRLQDVLLLRLGSGPAIDLEKVKSECLEPEPELRSTFSEEANTSSYYPAPAPVMDKYILDNGKVHLGSGIWVDEEKWHQLQVTQGDSKYTKNLAVMIWGTDVLKNRSVTGVATKKKKDAVPKPPLSPHKLSIVRECLYDRIAQETVDETEIAQRLSKVNKYICEKIMDINKSCKNEERREAKYNLQ”, the “soluble on expression in E. coli” value was “soluble”. Next, “MYATFSALKKYGYAELSIQRIASELNFSKSTLYHHFSDKDDLLLSFFNFLLDELEQFCKSSSTNEPKKELLDFVDVLLDEGITQKEQSAKGEILAAYIELRSQAIHDTKYRERITRTDKRFVKQIAVIIDAGIDKGVFQPVEPEETAEFILAILNGILMQGSTRKRAPFQQLRQNLIEYIQTELFVESATRS”: “not soluble”; “MYDTEIPYEGKISIYTYFCKECGYRKTEVYSDEKRDPKKITIRIENPDDLRIIVYRSRRADVYIPEMEASIDSAEYSNGEITTIEGIIYRIGEKLDLLAADDQNNKKIASLRKRIDGIINGKFESFTLIIMDESGKSVVHS”: “not soluble”. The entry for “MYDTPIFRSEFKVISHELIHALPKVILGESGDAAYMQSRVQQLADDHVAYFECTVPHEDIERAISVAEQAPFTVGILERIDDSSHYTDRSRTPVVVGFSTQSADVAAILRENYVPFEFDGSVADQVRVGASRIIHGIGLFEDFRFEDDDIVPGRLSAWVRDRDYPVLVEPFADLENGEVAELADHPLPLMSKLGYRTASSILSTDRLLELTEYLELQIEDLFELTRDAVAVSLLPQPLRVQLWEELVFPFFEQLGEDFADHSTTDDAESTTELRSEREHAGHAHTDHHGGAAGLEGVDPQFLDEMGIEFDDLDL” is “not soluble”; for “MYDVLDSQSVLEVLRPVQDPELRKSLVELNMIRNVKIDGGQVSFTLVLTTPACPLREFIVEDCQRAVKKLPGVTDVSVEVTAETPQQKSLPDRNGVPGVKNIIAISSGKGGVGKSTVAVNVAVALAQTGAKVGLLDADIYGPNDPTMLGLGDAQIVVRSTEKGEVLEPAFNHGVKLVSMGFLIDRDQPVIWRGPMLNGVIRQFLYQVEWGELDYLIVDMPPGTGDAQLTLTQAVPMSGAVIVTTPQNVALLDSRKGLRMFQQMNVAVLGIVENMSYFIPPDMPDKHYDIFGSGGGSKTAAELGVPLLGCIPLEISTRIGGDNGVPIVVADPDSASAKALKAIALTIAGKVSVAALTLEHHHHHH” it is “soluble”; for “MYEGLLIDIDYLLNVVKELKINFDKKIKTLNLLIERNIPIVLYTENNKEYVDTIMKYLKIKEPAIIVEGAQIYSPFDLSYEAVFPLSINTVCKLGNWAMDRKMDMSISTDKKVIDYSEWLKELRQVNYKNAGDKLPSAVKVDICMKNDDKRIELLNFIGKNNLECYAHMYLNHVACINSIVDKGNTLKYLANKKKWDIKKFAMIGDYSKDTSIFDEVGF” it is “not soluble”.

Consider “MYGAVVVAGDHQRGAGVGMLRTRKLAQVAEINVVKSLDYLRLWHPILQNLRGRDFPTIELLLLRWRPARSAPPLSPPRTQDFENPWSPKSHRTALPWVFVFLSSRSRDRGPKNPTRAQWVPMNR”, for which the “soluble on expression in E. coli” value is on record as “not soluble”. Next, “MYIDKDDFTAWMERIMDRFDMQDKKIDRVIKGRNCLDGEELLDNQDLCLLLKVAPRTLTRYRKKGILPFLMLDGRCYYRATDVHKLIREKTD”: “not soluble”; “MYIKNSERLKFRLMDSKDAQELWEIDQDPTVMKFLNGGNPTSIEQVNSVFIPRMNKYRNSELGWGIWQVSNKVTDEYLGWVLIRPMSFFTESPNTKDLELGWRFFQSTWGKGYATEAAIAIRDAVVANTDVTHVSALAVADNLASVGVMKKMGMHFVRAYLHEDPIGDFDAVHYQMSVRNK”: “not soluble”. Next, “MYILVENAVTSKQLVTGVRTEPHYRYAGYYLKAYEIVANQERDKTKYESLEPAIKALFTLDSEHEKKVRTQLENLKLLTKFKFTGIYTESVDRYNKAVVLQDKGKTEDAETATTNAQT”: “not soluble”; “MYIPKHFAVNDPDVAYQVIEENSFATLVSMHQRELFATHLPLLLDREKTCLYGHFARSNPQWNDIQHQTVLAIFHGPHCYISPSWYETNQAVPTWNYVAVHVYGNVELINDQGEVMQSLHDMVEKYEAPGSRYQLSEVDAGMLSGMNKGIQAFKIIIKRIEGKAKLSQNHPAHRQERIIKQLEQMPFENEKRIASLMKKQRQ”: “soluble”; “MYKGYLIDLDGTMYRGEEQIEEASDFVKALGERGIPYLFVTNNSTRKPEQVAEKLVRFDIPAKAEQVFTTSMATANFIYERKQDATVYMIGEEGLHDALVEKGFELVDENPDFVVVGLDRDITYEKLAKACLAVRNGATFISTNGDIAIPTERGLLPGNGSLTSVVAVSTGVDPIFIGKPESIIMEQALKVLGIEKNEALMVGDNYDTDILAGINAGMHTLLVHTGVTTVEKLTEYEVQPTQVVHNLTEWIEKM”: “not soluble”. Next, “MYKVSIICTNYNKAPWISDALDSFLSQVTDFEVEIIVIDDASTDDSREILKSYQKKSSGKIKLLFNETNIGITKTWIKACLYAKGKYIARCDGDDYWTDSFKLQKQVDVLEASKRSRWCNTDFDFVNSQGDLLYANAFSSGHTPLTDTYEKVLALKGMTMASTWLVDADLMRQVNQKINVDTPDDTFDIQLELFQLTQLTYIKDSTTIYRMTTDSDSRPTDTPKMIYRIQKLLDTQLNYLKKYNQVDTKEVSELLLQQDAKQEIRIHELSCFIQELQQTIVDKTKQQETREVELQNVIEEQKNQLSELRQQYHAIINSRQWKYTSKLIAFIRRKK”: “not soluble”; “MYLQLLKPTLLRCSTRPSSSGAYTRSPIDQKWAAMAKKAMKGREADTLTWNTPEGIPIKPLYLRSDRDCDAQRSVELPGQFPFTRGPYPTMYTQRPWTIRQYAGFSTVEESNKFYKENIKAGQQGLSVAFDLATHRGYDSDNPRVFGDVGMAGVAVDSVEDMRQLFDGINLEKMSVSMTMNGAVVPVLAMYVVAAEEAGVSRKLLAGTIQNDILKEFMVRNTYIYPPEPSMRIIGDIFAYTSREMPKFNSISISGYHMQEAGADAVLEMAFTIADGIQYCETGLNAGLTIDAFAPRLSFFWGISMNFYMEIAKMRAARRLWANLIKERFSPKSDKSMMLRTHSQTSGWSLTEQDPYNNIIRTTIEAMASVFGGTQSLHTNSFDEALGLPTKFSARIARNTQIIIQEESGICNVADPWGGSYMMESLTDEIYEKALAVIKEIDELGGMAKAVASGMTKLKIEEAAAKKQARIDAGKDVIVGVNKYRLDHEQQVEVLKIDNAKVREEQCAKLNHIRATRDAEKAQKALDAITEGARGNGNLMELAIEAARARCTVGEISDAMEKVFNRHAAVNRLVSGAYKSEFGETSEMSQVLERVKSFADRDGRQPRIMVAKMGQDGHDRGAKVIATGFADLGFDVDVGPLFQTPLEAAQQAVDADVHVIGASSLAAGHLTLIPQLIGELKKLGRPDILVVAGGVIPPQDYKELYDAGVALVFGPGTRLPACANQILEKLEANLPEAPGKAASR”: “not soluble”; “MYNIGDKIVYPMHGAGVIESIEEREILGKKQSYYVVKIPIGEMKVLIPIKNVDGIGIREVISEEDADKVFLILKNKALPSNTNWNKRYRENMSKIKSGNIFEVADVVRCLMLRDKLKGLSTGEKKMLNSAKQILISELVLAKNMNPMEIEGMIDKYIS”: “soluble”.

Regarding “MYPDDSLTLHTDLYQINMMQVYFDQGIHNKKAVFEVYFRQQPFKNGYAVFAGLERIVNYLEDLRFSDSDIAYLESLGYHGAFLDYLRNFKLELTVRSAQEGDLVFANEPIVQVEGPLAQCQLVETALLNIVNYQTLVATKAARIRSVIEDEPLMEFGTRRAQEMDAAIWGTRAAVIGGANGTSNVRAGKLFDIPVLGTHAHALVQVYGNDYEAFKAYAATHKNCVFLVDTYDTLRIGVPAAIQVARELGDQINFMGVRIDSGDIAYISKKVRQQLDEAGFTEAKIYASNDLDENTILNLKMQKAKIDVWGVGTKLITAYDQPALGAVYKIVAIEDETGQMRNTIKLSNNAEKVSTPGKKQVWRITSREKGKSEGDYITYDGVDISDMTEIKMFHPTYTYIKKTVRNFDAVPLLVDIFKEGILVYNLPSLTDIQDYARKEFDKLWDEYKRVLNPQHYPVDLARDVWQDKMDLIDKMRKEALGEGEEE”, the “soluble on expression in E. coli” value is listed as “not soluble”. As for “MYQAVVFFDLDGTLMQDDKTVAASSVRAIQQLRANHVLPVIATGRNVFEVQDVMTTTGIDSIVSANGSYVAYQGQFLSAHELDKELLTDITHFANRQQNALAYYNNAGFALSHRDALTTSNYRALRQTARVAPHFYEHQHINFLLTFDPLNAAQYRQRYRGRLHFVRNNPRALDTMQWGVSKAVGIQDILTKAHLTKVPTYAFGDQLNDIEMFRMIQTPIAMGNGHPQVKQLARYVTADNMHGGIAQGLQHFDLI”, the “soluble on expression in E. coli” value was “not soluble”. “MYQIISDSACDLTELYVKKHNIEIVPLTASLDGETYLKDKTEINRKDFYTTMVENPDIFPKTSLPSVESYETVFRKYAEQNIPVVCFTISIHLSGSYNSASMAKDVVEEDYPDAKIVVLDSQQDTVSQALIIDQVVRMQNDGIPFDTMIENTKKLMGTARIFFTVGSLDYLRIGGRIGKMAISATGKLGIKPIIILKDGEVNLGGVGRNRGKLKKNLIQIADKYLTENGKDNFVVSIGYGYDAIEGVAFKDEVEAGLGVKLNGDTNVEIGVITAVHTGPHAIGIGVIQKYETLK”: the “soluble on expression in E. coli” value was “not soluble”. On to “MYSANPTLGYYVPPLDVNNLTDQQTAISIEHLSLYYQQSRALSDISMRIPKGQVTAFIGPSGCGKSTLLRCINRMNDLVEGTRVEGEVKLHGKNIYHPDVDVPTLRRRVGMVFQRPNPFPKSIYENVVYGLRLQGIKNSRALDDAAEQSLRAAALWDEVKHRLHENAFGLSGGQQQRLVIARAIAIEPEVLLLDEPTSALDPISTLTIEELIHDLKTKYTVVIVTHNMQQAARVSDHTAFIHMGKLIEYADTDSIFTSPLKKQTEDYITGRYG”, for which the “soluble on expression in E. coli” value was “not soluble”. Next, “MYSAPDFSNNDYKIIMSSQNMKDEKEELMDINKVSEQEMLARKVSKSYVSKIIEYREITGGFDKLEDMKRIKGIGNATYQKLSKVFKVASAPNKKMLNINSADDMTLKYYGLSKKEIKRIQKYLDKNDRITDNIEFKKIVNKKTYERLKDLINYDGGKRLEHHHHHH”: “soluble”. Next, “MYSDHTQTEAFRGELHGVYGLLFTDGGAPSSAQTSTDFIDASLGVNGYLAADGRGTLAGRVSGVLAGQPAVVGLRNAQAQYWATATGSGDYQINGVRPGRYRMTLYQHELEVAQRDVEVFAGATAQAALQAVSLPGAVKWLEHHHHHH”: “not soluble”.

(Values after the DeepSol protein solubility set.)
